Results taken from PMC9529347.

Target: SARS-CoV-1 RBD monomer (N321-P513) with C-terminal AVI-tag and 6xHIS-tag (SARS-CoV-1)
Assay: SPR

soluble human ACE2, truncated ectodomain (S19-D615), C-terminal 6xHIS-tag, sequence (Q9BYF1 19-615): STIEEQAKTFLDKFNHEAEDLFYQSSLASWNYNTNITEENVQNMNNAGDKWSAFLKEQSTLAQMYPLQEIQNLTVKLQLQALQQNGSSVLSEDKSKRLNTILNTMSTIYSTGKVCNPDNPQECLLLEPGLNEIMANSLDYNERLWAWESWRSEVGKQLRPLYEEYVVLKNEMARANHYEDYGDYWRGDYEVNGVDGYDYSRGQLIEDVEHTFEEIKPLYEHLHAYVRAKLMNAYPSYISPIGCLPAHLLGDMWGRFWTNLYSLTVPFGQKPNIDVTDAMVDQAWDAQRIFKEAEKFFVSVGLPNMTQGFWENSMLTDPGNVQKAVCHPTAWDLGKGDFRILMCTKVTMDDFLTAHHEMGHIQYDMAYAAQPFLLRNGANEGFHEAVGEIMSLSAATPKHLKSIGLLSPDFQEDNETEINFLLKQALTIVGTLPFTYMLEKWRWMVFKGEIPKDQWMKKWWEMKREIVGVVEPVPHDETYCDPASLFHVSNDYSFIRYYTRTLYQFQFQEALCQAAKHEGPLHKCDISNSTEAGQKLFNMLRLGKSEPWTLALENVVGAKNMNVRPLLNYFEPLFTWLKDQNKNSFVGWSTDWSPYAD

“soluble human ACE2, truncated ectodomain (S19-D615), C-terminal 6xHIS-tag (from UniProt Q9BYF1 19-615) (receptor)” showed a Kd of 253 nM.
